From US11987606 (Johns Hopkins, dated 2024)

Target: T cell receptor of Ova-specific CD8+ T cells (OT-I), on OT-I cells (mouse)
Experiment: cell-based or functional assay

- IFN-γ expression of OT-I cells (flow cytometry); potency relative to dimeric Kb(Ova)/Fc: > 100 fold
- IFN-γ expression of resting or naïve OT-I cells after 12 hours (flow cytometry); potency by minimal dose of antigen required to detect activation, relative to monomeric Kb(Ova): > 1000 fold
B1: Kb(Ova)/ANXA5 (peptide-MHC)
chain: SIINFEKLGGGASGGGGSGGGGSIQKTPQIQVYSRHPPENGKPNILNCYVTQFHPPHIEIQMLKNGKKIPKVEMSDMSFSKDWSFYILAHTEFTPTETDTYACRVKHASMAEPKTVYWDRDMGGGGSGGGGSGGGGSGGGGSGPHSLRYFVTAVSRPGLGEPRYMEVGYVDDTEFVRFDSDAENPRYEPQAPWMEQEGPEYWERETQKAKGNEQSFRVDLRTLLGYYNQSKGGSHTIQVISGCEVGSDGRLLRGYQQYAYDGCDYIALNEDLKTWTAADMAALITKHKWEQAGEAERLRAYLEGTCVEWLRRYLKNGNATLLRTDSPKAHVTHHSRPEDKVTLRCWALGFYPADITLTWQLNGEELIQDMELVETRPAGDGTFQKWASVVVPLGKEQYYTCHVYHQGLPEPLTLRWEPPPSTRSMAQVLRGTVTDFPGFDERADAETLRKAMKGLGTDEESILTLLTSRSNAQRQEISAAFKTLFGRDLLDDLKSELTGKFEKLIVALMKPSRLYDAYELKHALKGAGTNEKVLTEIIASRTPEELRAIKQVYEEEYGSSLEDDVVGDTSGYYQRMLVVLLQANRDPDAGIDEAQVEQDAQALFQAGELKWGTDEEKFITIFGTRSVSHLRKVFDKYMTISGFQIEETIDRETSGNLEQLLLAVVKSIRSIPAYLAETLYYAMKGAGTDDHTLIRVMVSRSEIDLFNIRKEFRKNFATSLYSMIKGDTSGDYKKALLLLCGEDD
